Test [1] addresses T1, mouse PD-L1-Fc tagged recombinant antigen (R&D systems) (mouse, UniProt Q9EP73 19-238).
T1 construct: Captured on a Protein A chip; not shown: Fc part of the bought protein, not described
Put plainly: SPR (Biacore), mouse PD-L1-Fc captured on Protein A chip, single cycle kinetics. The procedure:
(§1) Aantigen was captured using a Protein A chip (GE Healthcare) and the AFFIMER® ILF format was run as an analyte using single cycle kinetics titrating from a maximum concentration of 1 nM, and regenerating using 10 mM glycine pH 1.5 (GE Healthcare).
Background: SPR reads the build-up and loss of mass on a sensor chip optically.

Test [2] has as its target T2, mouse serum albumin (mouse, UniProt P07724 25-608).
T2 construct: also called MSA
The experiment in a line: binding ELISA on coated MSA, panel title 'Affimer binding to MSA, pH 7' (legend: pH 7.4). The procedure: Human (Sigma-Aldrich); Cynomolgus and Mouse (Abcam); Equine (Abcam); Canine (Abcam); Mouse (Sigma-Aldrich); Rabbit (Sigma-Aldrich); Porcine (Sigma-Aldrich);, and Rat (Sigma-Aldrich) serum albumin were coated overnight on 96 well plates (Corning Costar) at 1 μg/ml in PBS at the appropriate pH (pH 6.0 or 7.4). Plates were saturated using 5% Casein (Sigma-Aldrich) buffer in PBS. […] Plates were then washed and AFFIMER® proteins were detected using a biotinylated polyclonal antibody anti-Cystatin (R&D System) for 90 minutes. After washing, streptavidin-HRP (Thermo Fisher Scientific) was added and incubated for 30 minutes.
(§2) Briefly, PD-1 was coated overnight on the plate at 1 μg/ml in carbonate buffer. Then plates were saturated using 5% Casein/PBS buffer. […] After saturation, the mix was added to the plates and incubated for 90 minutes. Plates were then washed and the detection polyclonal antibody, biotinylated anti-PD-L1, was added. After washing the plates, streptavidin-HRP was added for 30 minutes. After a final wash, development of the reaction was performed using TMB (Pierce) and the plates were read using a plate reader at 450 nm (FIG. 26C).

For test [3], the target named is T3, mPD-L1 (mouse, UniProt Q9EP73 19-238, limits assumed).
T3 construct: May be the same reagent as the mouse PD-L1-Fc of the Biacore run
The experiment in a line: competition ELISA: mPD-L1 pre-incubated with the AFFIMER polypeptide and added to coated mPD-1; blocked ligand mPD-1. The procedure: as §2
In general terms: An ELISA detects its analyte on a solid surface through an enzyme-linked reagent.

Test [4] deals with T1, mouse PD-L1-Fc tagged recombinant …. Put plainly: Biacore single cycle kinetics, mouse PD-L1-Fc captured on Protein A chip. The procedure:
as §1

Test [5] has as its target T4, human serum albumin (human, UniProt P02768 25-609).
T4 construct: mature; Bought protein; biotinylated in the Octet and HTRF assays; also called HSA; HuSA
Put plainly: SPR (Biacore), immobilised HSA, pH 7.4. The procedure:
(§3) Affinities for mouse, human, and cynomolgus serum were also measured at pH 7.4 for four (4) AFFIMER® binders using surface plasmon resonance (SPR) (FIG. 5, Table 5). […] A concentration titration of AFFIMER® monomers was run as analyte at a flow rate of 30 μl/min or 60 μl/min. Fc2-1, Fc3-1 and Fc4-1 kinetic data was blank subtracted and fit to a 1:1 Langmuir binding model (BIAcore Evalution software; GE) to calculate KD values.

Test [6] addresses T4, human serum albumin. The experiment in a line: Biacore, immobilised HSA, pH 7.4. The procedure:
as §3

T1 sequence (Q9EP73 19-238 limits assumed): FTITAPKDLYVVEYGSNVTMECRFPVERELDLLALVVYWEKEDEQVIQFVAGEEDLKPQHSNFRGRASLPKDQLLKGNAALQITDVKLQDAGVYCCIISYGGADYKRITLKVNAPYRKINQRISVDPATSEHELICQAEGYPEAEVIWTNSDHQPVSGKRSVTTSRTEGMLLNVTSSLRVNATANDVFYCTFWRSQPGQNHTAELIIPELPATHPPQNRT
T2 sequence (P07724 25-608 limits assumed): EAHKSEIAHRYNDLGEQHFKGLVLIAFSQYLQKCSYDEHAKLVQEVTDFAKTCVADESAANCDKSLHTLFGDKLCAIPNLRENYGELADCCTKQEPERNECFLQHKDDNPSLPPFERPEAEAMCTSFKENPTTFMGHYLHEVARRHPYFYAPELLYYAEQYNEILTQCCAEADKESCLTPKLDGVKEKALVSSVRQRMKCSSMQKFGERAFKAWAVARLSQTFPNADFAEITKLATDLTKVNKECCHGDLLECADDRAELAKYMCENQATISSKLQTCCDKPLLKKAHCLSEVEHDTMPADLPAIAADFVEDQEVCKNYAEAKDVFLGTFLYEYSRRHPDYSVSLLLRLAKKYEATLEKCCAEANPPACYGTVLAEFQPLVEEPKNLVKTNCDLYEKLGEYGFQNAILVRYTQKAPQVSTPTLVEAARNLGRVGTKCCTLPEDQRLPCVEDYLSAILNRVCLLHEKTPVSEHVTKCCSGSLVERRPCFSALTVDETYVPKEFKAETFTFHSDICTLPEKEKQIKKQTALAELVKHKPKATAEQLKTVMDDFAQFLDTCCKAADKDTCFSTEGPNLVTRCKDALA
T3 sequence (Q9EP73 19-238 limits assumed): as the sequence (Q9EP73 19-238 limits assumed) above

B1: AVA04-182 XT20 (designed binder)
chain: MIPRGLSEAKPATPEIQEIVDKVKPQLEEKTNETYGKLEAVQYKTQVLAFALPEFEYMSTNYYIKVRAGDNKYMHLKVFNGPPMIRRKNEVADRVLTGYQVDKNKDDELTGFAEAAAKEAAAKEAAAKEAAAKEAAAKEAAAKMIPRGLSEAKPATPEIQEIVDKVKPQLEEKTNETYGKLEAVQYKTQVLAFALPEFEYMSTNYYIKVRAGDNKYMHLKVFNGPPMIRRKNEVADRVLTGYQVDKNKDDELTGFAEAAAKEAAAKEAAAKEAAAKEAAAKEAAAKMIPRGLSEAKPATPEIQEIVDKVKPQLEEKTNETYGKLEAVQYKTQVLANFFQRRWPGSTNYYIKVRAGDNKYMHLKVFNGPWKFRNTDRGADRVLTGYQVDKNKDDELTGFHHHHHH
Turning to B1, in test [1], the equilibrium dissociation constant (Kd) (commonly a measure of binding affinity in units of concentration) amounted to 0.0906 nM. Further, the binding result in test [2] is given as “binds”. In addition, in test [3], the IC50 (in general, the concentration at which inhibition is half-maximal) was 135 nM. Moreover, in test [4], the dissociation rate constant (koff) (commonly a measure of how fast the partners let go of each other) turned out to be 0.0025 s⁻¹ and the kon (commonly the second-order rate constant of association) stood at 2.76e+07 M⁻¹ s⁻¹.

B2: HSA-41 CQ (designed binder)
chain: MIPRGLSEAKPATPEIQEIVDKVKPQLEEKTNETYGKLEAVQYKTQVLANFFQRRWPGSTNYYIKVRAGDNKYMHLKVFNGPWKFRNTDRGADRVLTGYQVDKNKDDELTGFAAAGGRAEQKLISEEDLGCAENLYFQGGAAGHHHHHH
notes: Purified in the presence of 5 mM TCEP; also called HSA-41 free C-terminal cysteine format (CQ); HAS-41 CQ
Consider B2, for which the Kd in test [5] is about 3 nM. In test [6], this molecule gave a Kd of 3.21 nM, a koff of 0.00663 s⁻¹ and a kon of 2.07e+06 M⁻¹ s⁻¹.
